Assay results as given in the supplement of paper PMC9732359.
± gives the uncertainty stated by the source.

Experiment: protein stability index of a GFP-peptide fusion (yeast GPS) (PSI 1-4); higher = more stable; sorted into four equal gates, so the index is relative within each strain
Procedure, shortened: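 The protein stability index of a peptide was calculated by multiplying its read frequency in each gate by that gate's number and adding the products. The peptides were tiled 17-residue stretches of yeast proteins, fused downstream of GFP on a Cherry-expressing plasmid and carried in yeast as a pooled library. Mid-log cultures in leucine-free medium were sorted into four equal gates by GFP/Cherry ratio, and each gate's plasmids were PCR-amplified and Illumina-sequenced.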

Sequence	protein stability index (doa10∆)	protein stability index (pdr5∆)	protein stability index (san1∆)	protein stability index (ubr1∆)
KIITSRPLQKIMLLQLE [SIN4]	2.12 ± 0.06	2.08 ± 0.052	2 ± 0.071	1.63 ± 0.044
KIKPYVRSFSKALDELK [LRP1]	2.52 ± 0.04	2.95 ± 0.037	2.35 ± 0.047	2.68 ± 0.027
KIMPKDILQITKKPLMV [SIR4]	2.62 ± 0.088	2.79 ± 0.17	2.32 ± 0.1	2.56 ± 0.09
KIRCFRYISTLTLYLFQ [IRR1]	1.69 ± 0.073	1.47 ± 0.077	1.64 ± 0.15	1.51 ± 0.14
KITSPIRSVALNDSNVK [RRP42]	2.6 ± 0.12	2.42 ± 0.11	2.59 ± 0.1	2.94 ± 0.078
KIYINLALGSHNKLIQF [SSN2]	2.57 ± 0.17	1.83 ± 0.078	2.13 ± 0.11	2.22 ± 0.071
KKAFTSYDRTLLIADSR [RPS16A]	2.25 ± 0.044	2.48 ± 0.073	1.9 ± 0.079	2.24 ± 0.059
KKASEISVSSRSDREYP [SRP14]	3.19 ± 0.096	3.1 ± 0.12	2.99 ± 0.1	2.87 ± 0.082
KKCHRLLWTPKKLEITS [RPR2]	2.35 ± 0.045	2.48 ± 0.044	2.59 ± 0.038	2.34 ± 0.031
KKDVEKELPDKVEKVVK [SNF2]	3.52 ± 0.23	3.47 ± 0.14	3.39 ± 0.099	3.34 ± 0.089
KKEEEEQLSEEDAKLKT [RPN1]	3.19 ± 0.16	3.24 ± 0.07	3.34 ± 0.11	3.06 ± 0.14
KKEEKLNIGKNFAHSDS [SIR4]	3.18 ± 0.059	2.97 ± 0.057	3.12 ± 0.033	3.11 ± 0.037
KKEENETISNVAKTAPN [SNF2]	2.86 ± 0.072	3.03 ± 0.065	2.52 ± 0.1	2.94 ± 0.047
KKEKLDSGEVDADGDID [DPB4]	3.05 ± 0.15	3.4 ± 0.17	3.29 ± 0.12	3.36 ± 0.11
KKEKLKQENSTLLKKAN [RPC82]	2.3 ± 0.074	2.81 ± 0.093	2.71 ± 0.12	2.85 ± 0.075
KKFGGKGARSRFQKSYR [RPS16A]	3.29 ± 0.12	3.27 ± 0.097	3.27 ± 0.072	3.32 ± 0.079
KKIFGTGKRLAKKVARR [RPS24A]	3.52 ± 0.064	3.34 ± 0.057	3.31 ± 0.039	3.42 ± 0.039
KKIIKCDEHMGLSLAGL [PRE5]	2.94 ± 0.079	3.2 ± 0.076	3.15 ± 0.075	2.94 ± 0.076
KKIMDETPSRLLLSPDQ [ITC1]	3.04 ± 0.056	3.37 ± 0.065	3.21 ± 0.078	3.33 ± 0.041
KKKAFTKYSAKYAQDGA [RPL3]	3.03 ± 0.12	3.38 ± 0.09	3.1 ± 0.054	3.04 ± 0.032
